# Settings: Homo sapiens; pH 7.4; Thermal; CD; Phosphate buffer saline; whole UniProt chain shown
protein,measurement,value
"SH2 domain-containing protein 1A wild type, O60880 (protein) MDAVAVYHGKISRETGEKLLLATGLDGSYLLRDSESVPGVYCLCVLYHGYIYTYRVSQTETGSWSAETAPGVHKRYFRKIKNLISAFQKPDQGIVIPLQYPVEKKSSARSTQGTTGIREDPDVCLKAP",Tm,57.8 °C
